# Numbering of substitutions follows the chain as printed.
# T1: canine OX40L, full length membrane form, expressed on HEK293 cells (canine)
# T1 construct: also called OX40L expressing HEK; HEK OX40L cells
# T1 chain: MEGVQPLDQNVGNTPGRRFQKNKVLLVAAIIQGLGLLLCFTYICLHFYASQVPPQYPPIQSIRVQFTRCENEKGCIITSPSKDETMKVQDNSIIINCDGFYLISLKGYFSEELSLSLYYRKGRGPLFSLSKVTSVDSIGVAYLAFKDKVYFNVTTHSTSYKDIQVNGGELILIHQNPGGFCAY
# T2: recombinant canine OX40L ECD-TNCc-HIS protein (canine)
# T2 construct: also called Trimeric OX40L probe (HIS tag); trimeric canine OX40L
# T2 chain: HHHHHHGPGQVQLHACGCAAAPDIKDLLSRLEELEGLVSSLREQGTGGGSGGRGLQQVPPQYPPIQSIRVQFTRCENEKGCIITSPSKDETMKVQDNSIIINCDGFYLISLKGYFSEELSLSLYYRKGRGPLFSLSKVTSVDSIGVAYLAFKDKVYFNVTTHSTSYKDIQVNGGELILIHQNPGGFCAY
# B1: PMX041 (antibody)
# heavy: EVHLVESGGDLVKPEGSLRLSCVVSGFTFTTNDMSWVRQAPGKGLQWVAYITSDGRITTYTDAVKGRFTISRDNAKNTLYLQMNSLRTEDTAVYYCAKHSSNWSRGRFGLDYWGHGTSLFVSSASTTAPSVFPLAPSCGSTSGSTVALACLVSGYFPEPVTVSWNSGSLTSGVHTFPSVLQSSGLYSLSSMVTVPSSRWPSETFTCNVAHPASKTKVDKPVPKRENGRVPRPPDCPKCPAPESLGGPSVFIFPPKPKDTLLIARTPEVTCVVVDLGREDPEVQISWFVDGKQMQTAKTQPREEQFNGTYRVVSVLPIGHQDWLKGKQFTCKVNHIGLPSPIERTISKARGQAHQPSVYVLPPSREELSKNTVSLTCLIKDFFPPDIDVEWQSNGQQEPESKYRTTPPQLDEDGSYFLYSKLSVDKSRWQRGDTFICAVMHEALHNHYTQKSLSHSPGK
# VL: SYVLTQLPSKNVTLKQPAHITCGGDNIGSKSVHWYQQKLGQAPVLIIYYDSSRPTGIPERFSGANSGNTATLTISGALAEDEADYYCQVWDNSASVFGGGTHLTVL
# notes: also called PMX41
# B2: PMX055 (antibody)
# heavy: EVQLEESGGDLVKPEGSLRLSCVVSGFTLSTFGMSWVRQAPGKGLQWVAYISSDGRSTSYTDAVKGRFTISRDNAKNTLYLQMNSLRTDDTAVYYCVQLGRGFGIDYWGHGTSLFVSSASTTAPSVFPLAPSCGSTSGSTVALACLVSGYFPEPVTVSWNSGSLTSGVHTFPSVLQSSGLYSLSSMVTVPSSRWPSETFTCNVAHPASKTKVDKPVPKRENGRVPRPPDCPKCPAPESLGGPSVFIFPPKPKDTLLIARTPEVTCVVVDLGREDPEVQISWFVDGKQMQTAKTQPREEQFNGTYRVVSVLPIGHQDWLKGKQFTCKVNHIGLPSPIERTISKARGQAHQPSVYVLPPSREELSKNTVSLTCLIKDFFPPDIDVEWQSNGQQEPESKYRTTPPQLDEDGSYFLYSKLSVDKSRWQRGDTFICAVMHEALHNHYTQKSLSHSPGK
# VL: B1 VL with K15R, T21P, S51T, N92S, S95A
# notes: also called PMX55
# B3: PMX039 (antibody)
# heavy: B1 heavy with H3Q, T30I, S53N, I57Y, T59S, W103Y, S104Y, L110M
# VL: B1 VL with S52T, N92S
# notes: also called PMX39
# B4: PMX050 (antibody, V domains shown)
# VH: EVQLVESGGDLVKPEGSLRLSCVVSGFTFTTYDMSWVRQAPGKGLQWVAYITNDGRITTYTDAVKGRFTISRDNAKNTLYLQMNSLRTVDTGVYYCARHSSSWSRGRFGLDYWGHGTSVFVSS
# VL: B1 VL with S29R, S31G
# notes: also called PMX50
# B5: PMX056 (antibody)
# heavy: B2 heavy with E5V, T31S, F32Y, K43R, T88S, D89E, I105M
# VL: B1 VL with L45V, S52T, N92S, S95A
# notes: also called PMX56
# B6: PMX052 (antibody, V domains shown)
# VH: EVQLVESGGDLVKPAGSLRLSCVASGFTFSSYSMSWVRQAPEKGLQLVAGISGGGSRTYYSDAVKGRFTISRDNAKNTVYLQMNSLRAEDTAIYYCAKDGGSWAGYNFDYWGQGTLVTVSS
# VL: DIVMTQTPPSLSVSPRETASISCKASQSLLHSDGSTYLDWYLQKPGQSPQLLIYLGSNRFTGVSDRFSGSGSGTEFTLRISRVEANDTGVYYCGQGTQLPYTFGQGTELEIK
# notes: also called PMX52
# B7: PMX047 (antibody, V domains shown)
# VH: EVQLVESGGDLVKPGGSLRLSCVASGFIFSSYSMSWVRQAPEKGLQLVAGINSAGSSTYYTDAVKGRFTISRDNAKNTVYLQMNSLRAEDTAIYYCAKRWVFDFWGQGTLVTVSS
# VL: HIVMTQTPLSLSVSPGEPASISCKASQSLLLSYGNTYLYWFRQKPGQSPQRLIYKVSNRDPGVPDRFSGSGSGTDFTLRISRVEADDAGVYYCGQGIQDPFTFGQGTKLEIK
# notes: also called PMX47
# B8: PMX053 (antibody, V domains shown)
# VH: B7 VH with G15A, I28T, F104Y
# VL: B7 VL with H1D, L30P, L31H, Y33L, V90I
# notes: also called PMX53
# B9: PMX051 (antibody, V domains shown)
# VH: EVQLVESGGDLVKPGGSLRLSCVASGFSFNTYHMNWVRQAPGKGLHWVAFINSDGGGTSYADTVKGRFTISRDYAKNTLYLQMNSLRAEDTAVYYCVSGSIWTHFDYWGQGTLVTVSS
# VL: SYVLTQLPSVSMTLRQTAHITCGGDIIGSKSVYWYQQKLGQAPVLIIYRDTNRPTGIPERFSGASSGNTATLTISGALAEDEADYYCQVWDSSTQAVFGGGTHLTVL
# notes: also called PMX51
# B10: PMX105 (antibody, V domains shown)
# VH: B9 VH with S28T, D54G, G56S, A61E, K65Q, V97A, S98C
# VL: B9 VL with M12V, L45M, T51N, A77S, S93R, V97L
# B11: PMX048 (antibody, V domains shown)
# VH: EVQLVESGGDLVKPGGSLRLSCVASGFTFNNYEMYWVRQAPGKGLEWVARIYESGTTTYSAEADTGRFTISRDNAKNMVFLQMNSLRAEDTAVYYCASASSSTWRFDYWGQGTLVTVSS
# VL: SYVLTQLPSVSVTLGQTARITCGGDSIGRKNVYWFQQKLGQAPVLIIYDDRSRPSGIPERFSGANSGNTATLTISGALAEDEADYYCQVWDSSTGVFGGGTHLTVL
# notes: also called PMX48
# B12: PMX054 (antibody, V domains shown)
# VH: EVHLVESGGDLVKPEGSLRLSCVVSGFTFSSYDMSWVRQAPGKGLQWVAYISSDGRSTGYTDAVKGRFTISRDNAKKTLYLQMNSLRSEDTAVYYCAKETPRWGFDYWGQGTLVTVSS
# VL: B11 VL with G15R, D25A, R29S, F35H, V44L, R51S, G95S
# notes: also called PMX54
# Molecular target: T1, canine OX40L, full length membrane …
# Test: flow cytometry
# Summary of the method: (§1)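 CHO supernatants at 1, 5 or 10 μg/ml in PBS/3% FBS incubated 30′ on ice with cells surface-expressing canine OX40L. Bound antibody detected with fluorescent anti-canine Fc secondary (1:1000, 30 min, dark) and measured by flow cytometry, with parental WT HEK signal subtracted where stated.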
row,GEO mean OX40L expressing HEK,Binder
1,1.56e+06,B1
2,3.26e+06,B2
3,1.52e+06,B3
4,3.08e+06,B4
5,3.16e+06,B5
6,765000,B6
7,1.95e+06,B7
8,3.03e+06,B8
9,3.94e+06,B9
10,584000,B10
11,3.92e+06,B11
12,3.27e+06,B12

# Molecular target: T1, canine OX40L, full length membrane …
# Test: flow cytometry, OX40L HEK minus WT HEK
# Summary of the method: as §1
row,GEO mean difference,Binder
1,1.53e+06,B1
2,3.23e+06,B2
3,1.49e+06,B3
4,3.06e+06,B4
5,3.13e+06,B5
6,734000,B6
7,1.92e+06,B7
8,3e+06,B8
9,3.92e+06,B9
10,580000,B10
11,3.9e+06,B11
12,3.24e+06,B12

# Molecular target: T2, recombinant canine OX40L ECD-TNCc-HIS …
# Test: SPR Koff (kd2)
# Experimental: (§2) Affinity (Kd) of OX40L antibodies is measured by SPR, using a recombinant canine OX40L ECD-TNCc-HIS protein (Seq ID 811) as the capturing agent (FIG. 5B).
# (§3) Functional affinity is determined using a Biakore 8K (Cytiva). in brief, purified OX40L ECD-TNCc-HIS protein is covalently bound at low density to the surface of a CM5 sensor chip (Cytiva) by amine coupling, using the manufacturer's recommended protocol. Candidate antibodies are subsequently passed across the chip surface at a range of concentrations and affinity determined using the dedicated software (Biacore Insight Evaluation Software). Curves were fitted using a bivalent analyte binding model.
row,koff [s⁻¹],Binder
1,0.000409,B1
2,0.401,B2
3,0.00139,B3
4,0.161,B4
5,0.000624,B5
6,0.0725,B6
7,1.5e-05,B7
8,0.565,B8
9,4.81,B9
10,1.23,B10
11,21,B11
12,0.0848,B12

# Molecular target: T2, recombinant canine OX40L ECD-TNCc-HIS …
# Test: SPR Koff (kd1)
# Experimental: as §2, §3
row,koff [s⁻¹],Binder
1,0.0134,B1
2,0.00366,B2
3,0.0128,B3
4,0.000525,B4
5,0.0148,B5
6,0.00276,B6
7,0.000451,B7
8,0.000587,B8
9,0.00119,B9
10,0.00174,B10
11,0.00485,B11
12,0.0345,B12

# Molecular target: T2, recombinant canine OX40L ECD-TNCc-HIS …
# Test: SPR KD1, bivalent analyte model
# Experimental: as §2, §3
row,Kd [nM],Binder
1,1590,B1
2,5.43,B2
3,46.4,B3
4,1.31,B4
5,61,B5
6,12,B6
7,12.5,B7
8,3.4,B8
9,7.92,B9
10,17.6,B10
11,12.2,B11
12,5.76,B12

# Molecular target: T1, canine OX40L, full length membrane …
# Test: cell-based or functional assay
% Signal Inhibition Average [%],% Signal Inhibition Rep1 [%],% Signal Inhibition Rep2 [%],% Signal Inhibition Rep3 [%],Binder
80.1,86.4,78.2,75.6,B1
52.8,48.3,57.7,52.3,B2
80.6,81.7,86.6,73.6,B3
76.6,68.7,83.3,77.6,B4
44.3,27.3,57,48.5,B5
22.2,15.7,29.2,21.7,B6
61.6,49.3,73.1,62.3,B7
39.7,24.5,45.8,48.9,B8
84.1,82.2,75.3,94.7,B9
84.2,85.4,94.8,72.5,B10
69.9,57.5,69.3,82.9,B11
32,21,32.8,42,B12

# — US20250340659A1 (PETMEDIX, published 2025)
